Experimental data taken from patent US20240034757A1 (OXFORD UNIVERSITY INNOVATION, published 2024).
Positions count from the first letter of the chain named. Where two headings read alike, the source gives them in different places.

Tests used:
CXCL9_HUMAN = target: T1, CXCL9_HUMAN (human, UniProt Q07325 23-125); experiment: BLI
T1 sequence: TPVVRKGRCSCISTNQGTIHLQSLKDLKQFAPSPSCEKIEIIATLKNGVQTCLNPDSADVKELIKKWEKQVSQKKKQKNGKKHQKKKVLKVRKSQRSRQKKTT

P1243_AMBAM [1] = target: T2, P1243_AMBAM (Amblyomma americanum, UniProt A0A0C9S461 26-123); experiment: BLI
T2 sequence: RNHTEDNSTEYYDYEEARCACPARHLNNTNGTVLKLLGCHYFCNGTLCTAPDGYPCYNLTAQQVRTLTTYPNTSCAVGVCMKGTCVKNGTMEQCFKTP

P1243_AMBAM [2] = target: T2, P1243_AMBAM; experiment: BLI; remark: listed apart in the source
CXCL12_HUMAN = CXCL12_HUMAN (human, UniProt P48061 22-89); experiment: BLI
CXCL12_HUMAN, sequence (P48061 22-89 limits assumed): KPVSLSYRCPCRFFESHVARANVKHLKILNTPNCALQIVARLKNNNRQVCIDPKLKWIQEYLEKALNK

CXCL10_HUMAN = target: T3, CXCL10_HUMAN (human, UniProt P02778 22-98); experiment: BLI
T3 sequence: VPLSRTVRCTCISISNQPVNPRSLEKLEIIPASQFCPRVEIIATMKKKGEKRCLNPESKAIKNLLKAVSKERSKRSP

CXCL14_HUMAN = target: T4, CXCL14_HUMAN (human, UniProt O95715 35-111); experiment: BLI
T4 sequence: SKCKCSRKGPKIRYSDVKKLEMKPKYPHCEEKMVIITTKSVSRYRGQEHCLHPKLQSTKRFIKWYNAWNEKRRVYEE

CXCL11_HUMAN = target: T5, CXCL11_HUMAN (human, UniProt O14625 22-94); experiment: BLI
T5 sequence: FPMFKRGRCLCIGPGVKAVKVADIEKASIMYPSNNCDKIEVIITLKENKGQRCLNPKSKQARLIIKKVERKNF

CXCL4_HUMAN = target: T6, CXCL4_HUMAN (human, UniProt P02776 32-101); experiment: BLI [Cont.]
T6 sequence: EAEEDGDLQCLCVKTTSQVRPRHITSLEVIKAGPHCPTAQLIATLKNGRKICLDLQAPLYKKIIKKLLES

CXCL8_HUMAN = target: T7, CXCL8_HUMAN (human, UniProt P10145 28-99); experiment: BLI [Cont.]
T7 sequence: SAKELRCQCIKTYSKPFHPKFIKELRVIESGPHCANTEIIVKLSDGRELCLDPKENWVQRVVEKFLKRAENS

CXCL7_HUMAN = target: T8, CXCL7_HUMAN (human, UniProt P02775 59-128); experiment: BLI [Cont.]
T8 sequence: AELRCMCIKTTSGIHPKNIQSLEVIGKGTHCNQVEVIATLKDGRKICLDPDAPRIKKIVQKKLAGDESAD

CXCL1_HUMAN = target: T9, CXCL1_HUMAN (human, UniProt P09341 35-107); experiment: yeast surface display FACS re-test; note: test concentration or dose not given here
T9 sequence: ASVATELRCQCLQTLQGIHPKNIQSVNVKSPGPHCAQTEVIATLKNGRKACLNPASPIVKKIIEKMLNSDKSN

CXCL13_HUMAN = target: T10, CXCL13_HUMAN (human, UniProt O43927 23-109); experiment: BLI
T10 sequence: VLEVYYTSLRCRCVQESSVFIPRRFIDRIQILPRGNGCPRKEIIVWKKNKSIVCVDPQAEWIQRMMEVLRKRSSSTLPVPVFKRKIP

P991_AMBCA = target: T11, P991_AMBCA (Amblyomma cajennense, UniProt A0A023FFD0 29-136); experiment: BLI
T11 sequence: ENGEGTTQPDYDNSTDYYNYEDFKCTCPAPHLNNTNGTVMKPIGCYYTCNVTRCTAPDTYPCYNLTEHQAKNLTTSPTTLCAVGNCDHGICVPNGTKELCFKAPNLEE

P985_AMBPA = target: T12, P985_AMBPA (Amblyomma parvum, UniProt A0A023FT45 25-132); experiment: BLI
T12 sequence: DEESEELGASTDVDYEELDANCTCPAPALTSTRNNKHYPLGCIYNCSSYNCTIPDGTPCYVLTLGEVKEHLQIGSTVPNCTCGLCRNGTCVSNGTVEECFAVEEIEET

P467_RHIPU = target: T13, P467_RHIPU (Rhipicephalus pulchellus, UniProt L7M8Z8 22-127); experiment: BLI
T13 sequence: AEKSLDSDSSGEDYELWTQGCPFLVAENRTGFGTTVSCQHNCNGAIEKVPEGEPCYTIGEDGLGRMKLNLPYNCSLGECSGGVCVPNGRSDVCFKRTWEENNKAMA

P546_AMBCA = target: T14, P546_AMBCA (Amblyomma cajennense, UniProt A0A023FBW7 22-118); experiment: BLI
T14 sequence: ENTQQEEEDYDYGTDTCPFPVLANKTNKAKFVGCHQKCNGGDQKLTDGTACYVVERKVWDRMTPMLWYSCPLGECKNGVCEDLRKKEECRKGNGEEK

P974_AMBCA = target: T15, P974_AMBCA (Amblyomma cajennense, UniProt A0A023FDY8 22-118); experiment: BLI
T15 sequence: T14 sequence with E8Q, S69E, E88D

P1180_AMBTR = target: T16, P1180_AMBTR (Amblyomma triste, UniProt A0A023G6B6 26-116); experiment: BLI
T16 sequence: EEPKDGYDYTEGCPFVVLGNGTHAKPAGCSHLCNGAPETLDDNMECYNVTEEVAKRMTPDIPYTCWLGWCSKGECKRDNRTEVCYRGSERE

P1181_AMBMA = target: T17, P1181_AMBMA (Amblyomma maculatum, UniProt G3MIX6 26-115); experiment: BLI
T17 sequence: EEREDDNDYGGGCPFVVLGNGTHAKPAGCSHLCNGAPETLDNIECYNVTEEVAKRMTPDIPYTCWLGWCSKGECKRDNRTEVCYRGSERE

P1182_AMBMA = target: T18, P1182_AMBMA (Amblyomma maculatum, UniProt G3MJ83 27-115); experiment: BLI
T18 sequence: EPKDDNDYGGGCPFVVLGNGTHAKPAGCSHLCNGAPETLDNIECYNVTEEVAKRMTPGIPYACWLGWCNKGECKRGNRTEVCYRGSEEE

B1: P1095_IXORI (other)
chain: HSPVAGSEVQKLTSDPNDDIDVSYCGMNCTVVNGKSDECSENCKCLHEGDDPKGICVAITYFGDWGDPNDDPKINEATPQTQIFEKKRK
B1: no binding (tested: 300 nM) (CXCL9_HUMAN).

B2: CCL27_HUMAN (ligand)
chain: FLLPPSTACCTQLYRKPLSDKLLRKVIQVELQEADGDCHLQAFVLHLAQRSICIHPQNPSLSQWFEHQERKLHGTLPKLNFGMLRKMG
B2 gave a Kd (P1243_AMBAM [1]) of 15.1 nM and a Kd (P1243_AMBAM [2]) of 15.1 nM.

B3: P1134_IXORI (other)
chain: NEEVFTVEYCGMNCTQKSDGTWTECSGKNKDCRCYHESDAREGLCLSTEYTDFSQFETPSNSDLEAATPRPRKTLYPVRNPHGPKTRGLGYDKRILRDRVKFLI
B3: no binding (tested: 300 nM) (CXCL12_HUMAN).

B4: P1124_IXORI (other)
chain: DSKGTSDSQDSTKSIKVDFCETNCTKTDGGWTGCTGDCICVSVGDSIEGRCMDFG
B4: no binding (tested: 300 nM) (CXCL10_HUMAN); no binding (tested: 300 nM) (CXCL14_HUMAN); no binding (tested: 300 nM) (CXCL11_HUMAN). The Kd (CXCL12_HUMAN) was 212 nM, the binding result (CXCL4_HUMAN) was “no binding (tested: 300 nM)” and the binding result (CXCL8_HUMAN) was “no binding (tested: 300 nM)”. B4: no binding (tested: 300 nM) (CXCL7_HUMAN).

B5: P1166_IXORI (other)
chain: GPETKEDKKSDVYELFTVEYCGTNCTLLTNGRWTACTGKKGTCRCYHESGEKVGLCLSTEYTDFSEYPNPKSSEIDAAAPLPRETH
In the case of B5, the “% cells over threshold fluorescence” value (CXCL1_HUMAN) is reported as 63%, the binding result (CXCL13_HUMAN) is reported as “no binding (tested: 300 nM)” and the binding result (CXCL9_HUMAN) is reported as “no binding (tested: 300 nM)”. B5: no binding (tested: 300 nM) (CXCL12_HUMAN).

B6: CCL5_HUMAN (ligand)
chain: SPYSSDTTPCCFAYIARPLPRAHIKEYFYTSGKCSNPAVVFVTRKNRQVCANPEKKWVREYINSLEMS
With B6 the Kd (P991_AMBCA) was 1.47 nM, the Kd (P985_AMBPA) was 3.5 nM and the Kd (P1243_AMBAM [1]) was 1.74 nM. For the same binder, the Kd (P467_RHIPU) was 7.67 nM and the Kd (P1243_AMBAM [2]) was 1.74 nM.

B7: CCL19_HUMAN (ligand)
chain: GTNDAEDCCLSVTQKPIPGYIVRNFHYLLIKDGCRVPAVVFTTLRGRQLCAPPDQPWVERIIQRLQRTSAKMKRRSS
Work on B7 yielded a Kd (P991_AMBCA) of 14.4 nM, a Kd (P1243_AMBAM [1]) of 0.592 nM and a Kd (P1243_AMBAM [2]) of 0.592 nM.

B8: CCL24_HUMAN (ligand)
chain: VVIPSPCCMFFVSKRIPENRVVSYQLSSRSTCLKAGVIFTTKKGQQFCGDPKQEWVQRYMKNLDAKQKKASPRARAVA
Binder B8 has a Kd (P1243_AMBAM [2]) of 7.39 nM.

B9: P1096_IXORI (other)
chain: HTTVTGSVEGKPNNPNEDIEVSYCRMNCTVENGVSSACSGDCVCVHRDNEPNGICVEITYFGDFGDPSQDPSIDEAAPRESVSKRRSNGES
B9: no binding (tested: 300 nM) (CXCL9_HUMAN); no binding (tested: 300 nM) (CXCL12_HUMAN).

B10: CCL1_HUMAN (ligand)
chain: KSMQVPFSRCCFSFAEQEIPLRAILCYRNTSSICSNEGLIFKLKRGKEACALDTVGWVQRHRKMLRHCPSKRK
Binder B10 has a Kd (P546_AMBCA) of 160 nM, a Kd (P985_AMBPA) of 8.3 nM and a Kd (P1243_AMBAM [1]) of 21.3 nM. For the same binder, the Kd (P467_RHIPU) was 53.4 nM, the Kd (P974_AMBCA) was 70.5 nM and the Kd (P1243_AMBAM [2]) was 21.2 nM.

B11: CCL17_HUMAN (ligand)
chain: ARGTNVGRECCLEYFKGAIPLRKLKTWYQTSEDCSRDAIVFVTVQGRAICSDPNNKRVKNAVKYLQSLERS
Binder B11 has a Kd (P546_AMBCA) of 70 nM, a Kd (P991_AMBCA) of 7.66 nM and a Kd (P1243_AMBAM [1]) of 0.734 nM. It also gave a Kd (P974_AMBCA) of 70.6 nM and a Kd (P1243_AMBAM [2]) of 0.734 nM.

B12: CCL18_HUMAN (ligand)
chain: AQVGTNKELCCLVYTSWQIPQKFIVDYSETSPQCPKPGVILLTKRGRQICADPNKKWVQKYISDLKLNA
Work on B12 yielded a Kd (P546_AMBCA) of 16 nM, a Kd (P991_AMBCA) of 0.209 nM and a Kd (P985_AMBPA) of 430 nM. It also gave a Kd (P1243_AMBAM [1]) of 0.00501 nM, a Kd (P1180_AMBTR) of 5.8 nM and a Kd (P1181_AMBMA) of 10 nM. It also gave a Kd (P467_RHIPU) of 16.6 nM, a Kd (P974_AMBCA) of 17 nM and a Kd (P1182_AMBMA) of 33 nM. For the same binder, the Kd (P1243_AMBAM [2]) was 0.005 nM.

B13: CCL22_HUMAN (ligand)
chain: GPYGANMEDSVCCRDYVRYRLPLRVVKHFYWTSDSCPRPGVVLLTFRDKEICADPRVPWVKMILNKLSQ
B13 showed a Kd (P1243_AMBAM [2]) of 22.3 nM.

B14: P1132_IXORI (other)
chain: LSDEDELFSVEYCGTNCTKQDTGSWTTCSGNCTCYHEDGKKVGLCLSTEYTDFTKFPKPTSEEIANARPLPKREKTLN
With B14 the “% cells over threshold fluorescence” value (CXCL1_HUMAN) was 68%, the binding result (CXCL13_HUMAN) was “no binding (tested: 300 nM)” and the binding result (CXCL9_HUMAN) was “no binding (tested: 300 nM)”. B14: no binding (tested: 300 nM) (CXCL12_HUMAN).

B15: P458_IXORI (other)
chain: GSKQPGAAGSSSDSVEAVFCPTNCTKGTNGAWSGCSDDCICVHVGENTEGSCMKFSGDYDYPTPEA
B15: no binding (tested: 300 nM) (CXCL10_HUMAN); no binding (tested: 300 nM) (CXCL14_HUMAN); no binding (tested: 300 nM) (CXCL11_HUMAN). B15: no binding (tested: 300 nM) (CXCL12_HUMAN); no binding (tested: 300 nM) (CXCL4_HUMAN); no binding (tested: 300 nM) (CXCL8_HUMAN). B15: no binding (tested: 300 nM) (CXCL7_HUMAN).

B16: P1100_IXORI (other)
chain: GSKGSSASQSSDNSVVAKFCDTNCTINEGGKWTECKGGCFCVHVGNETVGRCMKLDGDYDYPSPKPEE
B16: no binding (tested: 300 nM) (CXCL14_HUMAN); no binding (tested: 300 nM) (CXCL12_HUMAN); no binding (tested: 300 nM) (CXCL4_HUMAN). B16: no binding (tested: 300 nM) (CXCL8_HUMAN); no binding (tested: 300 nM) (CXCL7_HUMAN).
